# Laboratory results: IntAct's records for PubMed 25910212
# B1: U4/U6 small nuclear ribonucleoprotein Prp31 (Homo sapiens), Q8WWY3 (parent)
# chain: MSLADELLADLEEAAEEEEGGSYGEEEEEPAIEDVQEETQLDLSGDSVKTIAKLWDSKMFAEIMMKIEEYISKQAKASEVMGPVEAAPEYRVIVDANNLTVEIENELNIIHKFIRDKYSKRFPELESLVPNALDYIRTVKELGNSLDKCKNNENLQQILTNATIMVVSVTASTTQGQQLSEEELERLEEACDMALELNASKHRIYEYVESRMSFIAPNLSIIIGASTAAKIMGVAGGLTNLSKMPACNIMLLGAQRKTLSGFSSTSVLPHTGYIYHSDIVQSLPPDLRRKAARLVAAKCTLAARVDSFHESTEGKVGYELKDEIERKFDKWQEPPPVKQVKPLPAPLDGQRKKRGGRRYRKMKERLGLTEIRKQANRMSFGEIEEDAYQEDLGFSLGHLGKSGSGRVRQTQVNEATKARISKTLQRTLQKQSVVYGGKSTIRDRSSGTASSVAFTPLQGLEIVNPQAAEKKVAEANQKYFSSMAEFLKVKGEKSGLMST
# partner: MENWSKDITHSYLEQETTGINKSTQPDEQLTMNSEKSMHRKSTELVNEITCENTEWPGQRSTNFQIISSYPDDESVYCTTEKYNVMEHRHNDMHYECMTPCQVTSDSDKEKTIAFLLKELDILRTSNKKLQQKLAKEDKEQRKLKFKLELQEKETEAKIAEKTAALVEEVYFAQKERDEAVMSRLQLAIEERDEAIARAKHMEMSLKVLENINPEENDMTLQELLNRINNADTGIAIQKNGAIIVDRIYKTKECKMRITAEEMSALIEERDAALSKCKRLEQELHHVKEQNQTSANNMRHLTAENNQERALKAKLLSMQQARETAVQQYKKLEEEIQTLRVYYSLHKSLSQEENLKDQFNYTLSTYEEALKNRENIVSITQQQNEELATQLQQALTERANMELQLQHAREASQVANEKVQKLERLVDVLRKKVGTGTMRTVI
# B2: E3 ubiquitin-protein ligase Midline-1 (Homo sapiens), O15344 (parent)
# chain: METLESELTCPICLELFEDPLLLPCAHSLCFNCAHRILVSHCATNESVESITAFQCPTCRHVITLSQRGLDGLKRNVTLQNIIDRFQKASVSGPNSPSETRRERAFDANTMTSAEKVLCQFCDQDPAQDAVKTCVTCEVSYCDECLKATHPNKKPFTGHRLIEPIPDSHIRGLMCLEHEDEKVNMYCVTDDQLICALCKLVGRHRDHQVAALSERYDKLKQNLESNLTNLIKRNTELETLLAKLIQTCQHVEVNASRQEAKLTEECDLLIEIIQQRRQIIGTKIKEGKVMRLRKLAQQIANCKQCIERSASLISQAEHSLKENDHARFLQTAKNITERVSMATASSQVLIPEINLNDTFDTFALDFSREKKLLECLDYLTAPNPPTIREELCTASYDTITVHWTSDDEFSVVSYELQYTIFTGQANVVSLCNSADSWMIVPNIKQNHYTVHGLQSGTKYIFMVKAINQAGSRSSEPGKLKTNSQPFKLDPKSAHRKLKVSHDNLTVERDESSSKKSHTPERFTSQGSYGVAGNVFIDSGRHYWEVVISGSTWYAIGLAYKSAPKHEWIGKNSASWALCRCNNNWVVRHNSKEIPIEPAPHLRRVGILLDYDNGSIAFYDALNSIHLYTFDVAFAQPVCPTFTVWNKCLTIITGLPIPDHLDCTEQLP
# B3: 2'-5'-oligoadenylate synthase 1 (Homo sapiens), P00973-2 (parent)
# chain: MMDLRNTPAKSLDKFIEDYLLPDTCFRMQINHAIDIICGFLKERCFRGSSYPVCVSKVVKGGSSGKGTTLRGRSDADLVVFLSPLTTFQDQLNRRGEFIQEIRRQLEACQRERAFSVKFEVQAPRWGNPRALSFVLSSLQLGEGVEFDVLPAFDALGQLTGGYKPNPQIYVKLIEECTDLQKEGEFSTCFTELQRDFLKQRPTKLKSLIRLVKHWYQNCKKKLGKLPPQYALELLTVYAWERGSMKTHFNTAQGFRTVLELVINYQQLCIYWTKYYDFKNPIIEKYLRRQLTKPRPVILDPADPTGNLGGGDPKGWRQLAQEAEAWLNYPCFKNWDGSPVSSWILLVRPPASSLPFIPAPLHEA
# partner: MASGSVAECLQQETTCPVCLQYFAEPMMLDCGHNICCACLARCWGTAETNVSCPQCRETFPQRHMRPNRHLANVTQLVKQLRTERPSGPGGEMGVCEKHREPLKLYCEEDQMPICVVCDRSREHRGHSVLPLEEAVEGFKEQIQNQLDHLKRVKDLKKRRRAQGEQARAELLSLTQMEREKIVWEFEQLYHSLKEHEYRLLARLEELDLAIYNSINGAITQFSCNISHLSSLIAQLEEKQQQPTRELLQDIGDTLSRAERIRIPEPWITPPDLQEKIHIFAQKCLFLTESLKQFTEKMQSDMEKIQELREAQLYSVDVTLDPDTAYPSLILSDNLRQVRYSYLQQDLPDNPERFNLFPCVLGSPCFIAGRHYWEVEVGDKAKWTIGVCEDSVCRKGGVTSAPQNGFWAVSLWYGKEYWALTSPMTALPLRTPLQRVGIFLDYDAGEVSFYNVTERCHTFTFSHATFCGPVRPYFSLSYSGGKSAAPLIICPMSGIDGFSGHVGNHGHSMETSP
# B4: Pigment epithelium-derived factor (Homo sapiens), P36955 (parent)
# chain: MQALVLLLCIGALLGHSSCQNPASPPEEGSPDPDSTGALVEEEDPFFKVPVNKLAAAVSNFGYDLYRVRSSTSPTTNVLLSPLSVATALSALSLGAEQRTESIIHRALYYDLISSPDIHGTYKELLDTVTAPQKNLKSASRIVFEKKLRIKSSFVAPLEKSYGTRPRVLTGNPRLDLQEINNWVQAQMKGKLARSTKEIPDEISILLLGVAHFKGQWVTKFDSRKTSLEDFYLDEERTVRVPMMSDPKAVLRYGLDSDLSCKIAQLPLTGSMSIIFFLPLKVTQNLTLIEESLTSEFIHDIDRELKTVQAVLTVPKLKLSYEGEVTKSLQEMKLQSLFDSPDFSKITGKPIKLTQVEHRAGFEWNEDGAGTTPSPGLQPAHLTFPLDYHLNQPFIFVLRDTDTGALLFIGKILDPRGP
# partner: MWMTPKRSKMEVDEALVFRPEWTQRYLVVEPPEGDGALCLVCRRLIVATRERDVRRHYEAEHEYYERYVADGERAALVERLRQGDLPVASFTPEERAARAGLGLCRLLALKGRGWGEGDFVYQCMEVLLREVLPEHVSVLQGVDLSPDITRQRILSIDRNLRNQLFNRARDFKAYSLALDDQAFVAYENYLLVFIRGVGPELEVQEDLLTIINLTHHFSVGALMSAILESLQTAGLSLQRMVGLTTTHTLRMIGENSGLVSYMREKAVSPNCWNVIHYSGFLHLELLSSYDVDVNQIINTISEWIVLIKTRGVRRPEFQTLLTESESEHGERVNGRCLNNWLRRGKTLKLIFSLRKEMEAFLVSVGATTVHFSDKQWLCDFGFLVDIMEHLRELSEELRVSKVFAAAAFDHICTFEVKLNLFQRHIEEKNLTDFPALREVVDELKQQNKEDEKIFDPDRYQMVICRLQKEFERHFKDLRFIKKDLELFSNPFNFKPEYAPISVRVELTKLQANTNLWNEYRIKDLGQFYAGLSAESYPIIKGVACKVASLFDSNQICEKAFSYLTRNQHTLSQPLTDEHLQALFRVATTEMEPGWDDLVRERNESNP
# B5: Dual specificity protein phosphatase 23 (Homo sapiens), Q9BVJ7 (parent)
# chain: MGVQPPNFSWVLPGRLAGLALPRLPAHYQFLLDLGVRHLVSLTERGPPHSDSCPGLTLHRLRIPDFCPPAPDQIDRFVQIVDEANARGEAVGVHCALGFGRTGTMLACYLVKERGLAAGDAIAEIRRLRPGSIETYEQEKAVFQFYQRTK
# B6: Bleomycin hydrolase (Homo sapiens), Q13867 (parent)
# chain: MSSSGLNSEKVAALIQKLNSDPQFVLAQNVGTTHDLLDICLKRATVQRAQHVFQHAVPQEGKPITNQKSSGRCWIFSCLNVMRLPFMKKLNIEEFEFSQSYLFFWDKVERCYFFLSAFVDTAQRKEPEDGRLVQFLLMNPANDGGQWDMLVNIVEKYGVIPKKCFPESYTTEATRRMNDILNHKMREFCIRLRNLVHSGATKGEISATQDVMMEEIFRVVCICLGNPPETFTWEYRDKDKNYQKIGPITPLEFYREHVKPLFNMEDKICLVNDPRPQHKYNKLYTVEYLSNMVGGRKTLYNNQPIDFLKKMVAASIKDGEAVWFGCDVGKHFNSKLGLSDMNLYDHELVFGVSLKNMNKAERLTFGESLMTHAMTFTAVSEKDDQDGAFTKWRVENSWGEDHGHKGYLCMTDEWFSEYVYEVVVDRKHVPEEVLAVLEQEPIILPAWDPMGALAE
# B7: U4/U6 small nuclear ribonucleoprotein Prp3 (Homo sapiens), O43395 (parent)
# chain: MALSKRELDELKPWIEKTVKRVLGFSEPTVVTAALNCVGKGMDKKKAADHLKPFLDDSTLRFVDKLFEAVEEGRSSRHSKSSSDRSRKRELKEVFGDDSEISKESSGVKKRRIPRFEEVEEEPEVIPGPPSESPGMLTKLQIKQMMEAATRQIEERKKQLSFISPPTPQPKTPSSSQPERLPIGNTIQPSQAATFMNDAIEKARKAAELQARIQAQLALKPGLIGNANMVGLANLHAMGIAPPKVELKDQTKPTPLILDEQGRTVDATGKEIELTHRMPTLKANIRAVKREQFKQQLKEKPSEDMESNTFFDPRVSIAPSQRQRRTFKFHDKGKFEKIAQRLRTKAQLEKLQAEISQAARKTGIHTSTRLALIAPKKELKEGDIPEIEWWDSYIIPNGFDLTEENPKREDYFGITNLVEHPAQLNPPVDNDTPVTLGVYLTKKEQKKLRRQTRREAQKELQEKVRLGLMPPPEPKVRISNLMRVLGTEAVQDPTKVEAHVRAQMAKRQKAHEEANAARKLTAEQRKVKKIKKLKEDISQGVHISVYRVRNLSNPAKKFKIEANAGQLYLTGVVVLHKDVNVVVVEGGPKAQKKFKRLMLHRIKWDEQTSNTKGDDDEESDEEAVKKTNKCVLVWEGTAKDRSFGEMKFKQCPTENMAREHFKKHGAEHYWDLALSESVLESTD
# Variants of: B1
# Settings: with mipo1_human MIPOL1, Q8TD10
row,Variant,effect of a mutation on the interaction
1,L107V,with no effect

# Variants of: B2
# Settings: with meox1_human MEOX1, P50221
# meox1_human MEOX1, P50221, sequence (P50221 whole entry): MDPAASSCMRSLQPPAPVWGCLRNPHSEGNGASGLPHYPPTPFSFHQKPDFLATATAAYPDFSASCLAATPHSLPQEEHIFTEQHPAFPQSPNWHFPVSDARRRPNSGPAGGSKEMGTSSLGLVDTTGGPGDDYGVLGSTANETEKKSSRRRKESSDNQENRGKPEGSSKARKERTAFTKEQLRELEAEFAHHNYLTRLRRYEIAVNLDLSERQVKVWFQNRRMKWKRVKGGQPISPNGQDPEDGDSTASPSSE
row,effect of a mutation on the interaction,Variant
1,with no effect,L626P
2,with no effect,K370E
3,with no effect,P151L
4,with no effect,C266R

# Variants of: B3
# Settings: with tri27_human TRIM27, P14373
row,effect of a mutation on the interaction,Variant
1,with no effect,R242Q

# Variants of: B4
# Settings: with epmip_human EPM2AIP1, Q7L775
row,effect of a mutation on the interaction,Variant
1,with no effect,T72M

# Variants of: B5
# Settings: with exos8_human EXOSC8, Q96B26
# exos8_human EXOSC8, Q96B26, sequence (Q96B26 whole entry): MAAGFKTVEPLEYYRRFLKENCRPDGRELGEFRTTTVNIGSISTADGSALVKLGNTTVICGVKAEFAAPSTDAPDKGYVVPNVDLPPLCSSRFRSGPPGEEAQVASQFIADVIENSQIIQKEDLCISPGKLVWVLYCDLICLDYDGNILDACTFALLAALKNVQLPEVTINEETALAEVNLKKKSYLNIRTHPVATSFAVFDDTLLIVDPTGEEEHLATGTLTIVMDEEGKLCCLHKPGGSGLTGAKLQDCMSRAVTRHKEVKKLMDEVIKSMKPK
row,effect of a mutation on the interaction,Variant
1,with no effect,G131S

# Variants of: B6
# Settings: with nud12_human NUDT12, Q9BQG2
# nud12_human NUDT12, Q9BQG2, sequence (Q9BQG2 whole entry): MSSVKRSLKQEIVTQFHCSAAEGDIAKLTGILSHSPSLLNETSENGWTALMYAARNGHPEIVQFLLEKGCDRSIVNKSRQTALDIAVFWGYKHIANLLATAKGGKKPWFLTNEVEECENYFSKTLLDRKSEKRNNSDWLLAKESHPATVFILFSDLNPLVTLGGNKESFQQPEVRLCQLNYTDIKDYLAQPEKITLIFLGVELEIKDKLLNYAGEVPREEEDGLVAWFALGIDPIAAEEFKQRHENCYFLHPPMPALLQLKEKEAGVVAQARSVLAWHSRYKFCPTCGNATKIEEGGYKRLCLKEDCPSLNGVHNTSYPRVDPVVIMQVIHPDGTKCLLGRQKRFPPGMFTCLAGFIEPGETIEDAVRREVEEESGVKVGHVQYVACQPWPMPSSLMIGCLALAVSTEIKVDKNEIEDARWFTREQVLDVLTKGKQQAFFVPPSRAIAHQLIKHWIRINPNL
row,effect of a mutation on the interaction,Variant
1,with no effect,I443V

# Variants of: B7
# Settings: with psmd3_human PSMD3, O43242
# psmd3_human PSMD3, O43242, sequence (O43242 whole entry): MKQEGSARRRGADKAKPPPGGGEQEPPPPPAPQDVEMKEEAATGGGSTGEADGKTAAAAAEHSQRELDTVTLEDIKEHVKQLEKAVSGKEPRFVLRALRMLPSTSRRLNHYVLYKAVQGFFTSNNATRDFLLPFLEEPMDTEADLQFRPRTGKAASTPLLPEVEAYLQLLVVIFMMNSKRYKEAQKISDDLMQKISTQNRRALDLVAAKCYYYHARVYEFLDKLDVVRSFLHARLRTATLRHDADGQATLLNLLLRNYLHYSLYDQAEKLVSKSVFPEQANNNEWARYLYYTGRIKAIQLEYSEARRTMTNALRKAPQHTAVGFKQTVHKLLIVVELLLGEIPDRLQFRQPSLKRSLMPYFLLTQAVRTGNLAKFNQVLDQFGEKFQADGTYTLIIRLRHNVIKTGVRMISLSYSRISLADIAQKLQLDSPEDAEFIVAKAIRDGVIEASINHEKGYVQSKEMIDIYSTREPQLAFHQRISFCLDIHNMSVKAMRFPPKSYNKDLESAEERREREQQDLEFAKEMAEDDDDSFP
row,effect of a mutation on the interaction,Variant
1,disrupting interaction strength,T494M

# Variants of: B7
# Settings: with fam9b_human FAM9B
row,effect of a mutation on the interaction,Variant
1,disrupting interaction strength,T494M
